Holding throughout (format): biochemical, Homo sapiens
Holding throughout (details): 50 mM Tris-HCl pH 7.5, 0.4 mM MnCl2, 0.1 mg/ml BSA, 37 °C

Substrate in data set [1]: N=c1c2ncn3c2ncn1[C@@H]1O[C@H](COP(=O)(O)OP(=O)(O)OC[C@H]2O[C@@H]3[C@H](O)[C@@H]2O)[C@@H](O)[C@H]1O
The data set is described as follows: HPLC assay of pRibAMP formation. The text has this:
HPLC assay of pRibAMP formation on human ADPRibase-Mn | displaying a decreased kcat for cADPR (Supplementary Table S1)

Substrate in data set [2]: C[N+](C)(C)CCOP(=O)(O)OP(=O)([O-])OC[C@H]1O[C@@H](n2ccc(N)nc2=O)[C@H](O)[C@@H]1O
The experiment in a line: colorimetric phosphate assay coupled to alkaline phosphatase.

Substrate in data set [3]: Nc1ncnc2c1ncn2[C@@H]1O[C@H](CO)[C@H]2OP(=O)(O)O[C@H]21
The data set is described as above.

Substrate in data set [4]: C[N+](C)(C)CCOP(=O)(O)OP(=O)([O-])OC[C@H]1O[C@@H](n2ccc(N)nc2=O)[C@H](O)[C@@H]1O
The experiment in a line: colorimetric phosphate assay coupled to alkaline phosphatase, Michaelis-Menten fit.

Substrate in data set [5]: Nc1ncnc2c1ncn2[C@@H]1O[C@H](CO)[C@H]2OP(=O)(O)O[C@H]21
The data set is described as above.

Substrate in data set [6]: N=c1c2ncn3c2ncn1[C@@H]1O[C@H](COP(=O)(O)OP(=O)(O)OC[C@H]2O[C@@H]3[C@H](O)[C@@H]2O)[C@@H](O)[C@H]1O
The data set is described as follows: HPLC assay of pRibAMP formation, initial rates, Michaelis-Menten fit.

Residue numbers refer to the chain shown, from its start. Numbers in names are those of the source.

B1: human ADPRibase-Mn (Homo sapiens; C253V) (protein)
chain: MDDKPNPEALSDSSERLFSFGVIADVQFADLEDGFNFQGTRRRYYRHSLLHLQGAIEDWNNESSMPCCVLQLGDIIDGYNAQYNASKKSLELVMDMFKRLKVPVHHTWGNHEFYNFSREYLTHSKLNTKFLEDQIVHHPETMPSEDYYAYHFVPFPKFRFILLDAYDLSVLGVDQSSPKYEQCMKILREHNPNTELNSPQGLSEPQFVQFNGGFSQEQLNWLNEVLTFSDTNQEKVVIVSHLPIYPDASDNVVLAWNYRDALAVIWSHECVVCFFAGHTHDGGYSEDPFGVYHVNLEGVIETAPDSQAFGTVHVYPDKMMLKGRGRVPDRIMNYKKERAFHC
notes: human liver cDNA, pGEX-6P-3-hADPRM, E. coli BL21; GST tag removed with PreScission protease, N-terminal extension … kept
B1: the Km is 0.56 ± 0.18 mM in data set [1], 1,120 ± 115 µM in data set [2] and 2,380 ± 250 µM in data set [3]. For the same protein, the kcat in data set [1] came to 1.6 ± 0.1 s⁻¹; in data set [2], 109 ± 9 s⁻¹; in data set [3] it was 148 ± 8 s⁻¹.

B2: human ADPRibase-Mn (Homo sapiens; C253G/F37A/L196F/V252A) (protein)
chain: B1 chain with F37A, L196F, V252A, V253G
notes: as for B1
For the protein B2, the Km in data set [4] came out at 10.6 mM; in data set [5] it was 8.7 mM; in data set [6] it was 0.14 mM. In addition, the turnover number (kcat) in data set [4] stood at 37 s⁻¹; in data set [5] it was 12 s⁻¹; in data set [6] it was 13 s⁻¹.

Source of the values: publication PMC5773619, “Specific cyclic ADP-ribose phosphohydrolase obtained by mutagenic engineering of Mn^2+-dependent ADP-ribose/CDP-alcohol diphosphatase” (Scientific Reports, 2018).
